B1: Guanyl-specific ribonuclease Sa, P05798 (parent)
chain: DVSGTVCLSALPPEATDTLNLIASDGPFPYSQDGVVFQNRESVLPTQSYGYYHEYTVITPGARTRGTRRIITGEATQEDYYTGDHYATFSLIDQTC
B2: Guanyl-specific ribonuclease T1, P00651 (parent)
chain: MMYSKLLTLTTLLLPTALALPSLVERACDYTCGSNCYSSSDVSTAQAAGYQLHEDGETVGSNSYPHKYNNYEGFDFSVSSPYYEWPILSSGDVYSGGSPGADRVVFNENNQLAGVITHTGASGNNFVECT

Legend:
[1] = variants of: B1; settings: Kitasatospora aureofaciens; pH 7; Thermal; CD; MOPS 30 mM; structure 1RGG; whole UniProt chain shown
[2] = variants of: B2; settings: Aspergillus oryzae (strain ATCC 42149 / RIB 40), 25 °C, Urea, CD, structure 1RN1, whole UniProt chain shown

Row | Variant | Tm [1] [°C] | unfolding enthalpy (van 't Hoff) [1] [kcal/mol] | denaturant m value ([2]; pH 2.5, glycine 30 mM) [kcal/mol/M] | denaturant midpoint (higher = more stable) ([2]; pH 2.5, glycine 30 mM) [M] | denaturant m value ([2]; pH 7, MOPS 30 mM) [kcal/mol/M] | denaturant midpoint (higher = more stable) ([2]; pH 7, MOPS 30 mM) [M]
1 | DVSGTVCLSALPPEATDTLNLIASKGPFPYSQDGVVFQNRESVLPTQSYGYYHEYTVITPGARTRGTRRIITGEATQEDYYTGDHYATFSLIDQTC [D25K] | 50.2 | 93 | – | – | – | –
2 | DVSGTVCLSALPPEATDTLNLIASDGPFPYSQDGVVFQNRESVLPTQSYGYYHEYTVITPGARTRGTRRIITGKATQEDYYTGDHYATFSLIDQTC [E74K] | 51.1 | 94 | – | – | – | –
3 | MMYSKLLTLTTLLLPTALALPSLVERACDYTCGSNCYSSSDVSTAQAAGYQLHEDGETVGSNSYPHKYNNYEGFAFSVSSPYYEWPILSSGDVYSGGSPGADRVVFNENNQLAGVITHTGASGNNFVECT [D75A] | – | – | 1.69 | 3.42 | 1.21 | 5.67

Reference: FireProtDB (doi:10.1110/ps.8.9.1843)
